Data as given in article PMC13418256.

Molecular target: human TLR5 (human) (UniProt O60602)
Sequence of UniProt O60602 (O60602 21-858): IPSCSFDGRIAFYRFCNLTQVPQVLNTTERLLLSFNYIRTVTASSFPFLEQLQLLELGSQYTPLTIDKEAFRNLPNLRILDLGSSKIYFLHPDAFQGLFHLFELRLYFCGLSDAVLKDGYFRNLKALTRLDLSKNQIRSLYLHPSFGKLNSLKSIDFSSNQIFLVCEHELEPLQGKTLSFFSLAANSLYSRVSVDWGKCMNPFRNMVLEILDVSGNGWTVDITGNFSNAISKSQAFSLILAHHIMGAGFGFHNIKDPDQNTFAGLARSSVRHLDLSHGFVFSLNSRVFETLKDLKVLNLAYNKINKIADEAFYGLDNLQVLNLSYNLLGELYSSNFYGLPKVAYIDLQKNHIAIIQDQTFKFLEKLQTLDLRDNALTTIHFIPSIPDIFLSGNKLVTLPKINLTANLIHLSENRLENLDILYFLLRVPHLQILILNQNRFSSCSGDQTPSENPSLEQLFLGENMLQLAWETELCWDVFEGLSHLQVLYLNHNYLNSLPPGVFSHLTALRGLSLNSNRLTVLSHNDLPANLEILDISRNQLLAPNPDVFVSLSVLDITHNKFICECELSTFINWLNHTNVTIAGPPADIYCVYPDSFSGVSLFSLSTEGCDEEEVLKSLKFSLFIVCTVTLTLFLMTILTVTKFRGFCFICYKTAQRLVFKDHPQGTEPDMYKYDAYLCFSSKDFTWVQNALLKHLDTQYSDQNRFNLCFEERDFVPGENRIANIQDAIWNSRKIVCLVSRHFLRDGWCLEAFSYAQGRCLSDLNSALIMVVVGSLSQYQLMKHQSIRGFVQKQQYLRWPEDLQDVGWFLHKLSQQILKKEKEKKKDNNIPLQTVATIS

Substance: Enterobacter sp. BIDMC93 host-encoded flagellin FliCH (natural protein)
- TLR5-driven NF-κB activation (SEAP colorimetric reporter) in HEK293T-Blue-hTLR5 cells stimulated with an Ent strain expressing only FliCH (ΔfliCP-tldR-gRNA), against the WT lysogenic strain (fold of the WT lysogenic strain): 2
